Measured values published in US20190248863A1.
Positions of bridges follow the written chain, without caps; N, C: chain ends. Chains are numbered I, II in the order given. No end group written: not given here.

Target: human RXFP2 (human), Q8WXD0
Assay: cell-based or functional assay

Chain of human RXFP2 (human), Q8WXD0 (Q8WXD0 whole entry): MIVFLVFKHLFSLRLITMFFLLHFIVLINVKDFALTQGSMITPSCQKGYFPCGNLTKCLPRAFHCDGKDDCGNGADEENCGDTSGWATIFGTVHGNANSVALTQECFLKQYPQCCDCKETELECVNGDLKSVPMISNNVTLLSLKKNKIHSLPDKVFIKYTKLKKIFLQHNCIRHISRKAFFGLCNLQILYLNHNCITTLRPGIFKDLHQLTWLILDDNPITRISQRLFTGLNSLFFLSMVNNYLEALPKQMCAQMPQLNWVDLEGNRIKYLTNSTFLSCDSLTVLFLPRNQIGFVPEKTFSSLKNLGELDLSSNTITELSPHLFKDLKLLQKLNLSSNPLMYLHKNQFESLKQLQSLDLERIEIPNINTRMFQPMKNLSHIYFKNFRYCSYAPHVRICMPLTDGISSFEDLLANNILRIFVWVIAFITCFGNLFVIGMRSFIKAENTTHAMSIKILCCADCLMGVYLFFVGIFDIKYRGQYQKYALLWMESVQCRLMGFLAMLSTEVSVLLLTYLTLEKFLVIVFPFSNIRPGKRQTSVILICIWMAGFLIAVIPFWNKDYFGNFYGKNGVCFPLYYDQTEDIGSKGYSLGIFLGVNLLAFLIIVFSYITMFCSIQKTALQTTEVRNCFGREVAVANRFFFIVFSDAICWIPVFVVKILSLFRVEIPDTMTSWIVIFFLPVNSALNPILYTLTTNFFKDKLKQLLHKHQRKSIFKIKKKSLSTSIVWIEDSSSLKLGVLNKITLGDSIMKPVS

Row | cAMP Assay EC50 (nM), human RXFP2/CHO-K1 cells | fold less potent than INSL3 (cAMP assay EC50, human RXFP2/CHO-K1 cells) | Maximal cAMP stimulation by RLX-A-AQ1-20KPEG compared to WT-RLX (percent), AVG, hRXFP2 | Potency Ratio (RLX-A-AQ1-20KPEG/WT-RLX), cAMP assay | RLX-A-AQ1-20KPEG Potency Ratio (hRXFP1-1.0), cAMP assay | Binder
1 | 5.5 nM | 10 fold |  |  |  | wild-type human relaxin 2 (WT-RLX) (ligand, disulfide I:10-I:15, I:11-II:11, I:24-II:23) chain 1: QLYSALANKCCHVGCTKRSLARFC chain 2: DSWMEEVIKLCGRELVRAQIAICGMSTWS
2 | 174 nM |  | 99% | 32 fold | 54 fold | RLX-A-AQ1-20KPEG (ligand, here or on the partner: para-acetylphenylalanine (pAcF, X) at position 1 of the A chain, linked to a 20 kDa PEG via an oxime linkage) chain 1: XLYSALANKCCHVGCTKRSLARFC chain 2: ASWMEEVIKLCGRELVRAQIAICGMSTWS
